Target: Monomeric human ACE2 (19-615), Fc tag removed by thrombin (human, UniProt Q9BYF1 19-615)
Test: BLI

Chain of Monomeric human ACE2 (19-615), Fc tag removed by thrombin (Q9BYF1 19-615): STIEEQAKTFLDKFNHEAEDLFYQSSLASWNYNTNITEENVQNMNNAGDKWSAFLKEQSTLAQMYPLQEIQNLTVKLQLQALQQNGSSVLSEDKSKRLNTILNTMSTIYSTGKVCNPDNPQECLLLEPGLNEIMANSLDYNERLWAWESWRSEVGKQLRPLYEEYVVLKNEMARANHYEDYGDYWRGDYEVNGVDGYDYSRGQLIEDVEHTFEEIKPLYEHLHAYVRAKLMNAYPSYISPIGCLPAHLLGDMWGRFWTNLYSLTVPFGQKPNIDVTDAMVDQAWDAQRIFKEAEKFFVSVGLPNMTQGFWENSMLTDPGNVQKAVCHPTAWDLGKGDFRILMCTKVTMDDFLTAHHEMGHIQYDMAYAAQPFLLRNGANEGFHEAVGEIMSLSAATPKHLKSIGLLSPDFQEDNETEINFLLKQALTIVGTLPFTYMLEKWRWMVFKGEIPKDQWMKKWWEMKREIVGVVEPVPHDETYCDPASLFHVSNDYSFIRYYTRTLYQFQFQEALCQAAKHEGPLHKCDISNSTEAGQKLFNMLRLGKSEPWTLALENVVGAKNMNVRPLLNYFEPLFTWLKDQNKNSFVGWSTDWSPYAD

B1: SARS-CoV-1 RBD (306-575), mammalian-expressed, purified (domain or fragment)
chain: not shown
Question: B1 was tested. Which Kd did it give?
Answer: 575 nM
